Experimental data: publication PMC11272584 (Nature Metabolism, 2024)
Changes are numbered by the printed parent chain.

How the values were obtained:
GIPR L304R (human) = biological target: T1, GIPR L304R (human) (UniProt P48546)
T1 sequence: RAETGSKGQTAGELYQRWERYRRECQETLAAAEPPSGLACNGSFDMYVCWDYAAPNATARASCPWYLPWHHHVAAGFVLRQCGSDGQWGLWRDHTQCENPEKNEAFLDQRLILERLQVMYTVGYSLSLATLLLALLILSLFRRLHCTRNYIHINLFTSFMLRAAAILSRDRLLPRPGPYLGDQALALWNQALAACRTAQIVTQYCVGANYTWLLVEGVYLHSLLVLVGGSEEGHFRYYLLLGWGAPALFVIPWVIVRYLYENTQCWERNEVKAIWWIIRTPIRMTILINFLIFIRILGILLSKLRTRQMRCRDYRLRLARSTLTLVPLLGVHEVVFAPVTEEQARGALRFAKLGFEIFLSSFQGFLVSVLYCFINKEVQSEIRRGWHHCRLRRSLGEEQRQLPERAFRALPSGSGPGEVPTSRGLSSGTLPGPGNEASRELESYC

GIPR I378M (human) = biological target: T2, GIPR I378M (human) (UniProt P48546)
T2 sequence: T1 sequence with R283L, I357M

GIPR E461* (human) = biological target: T3, GIPR E461* (human) (UniProt P48546)
T3 sequence: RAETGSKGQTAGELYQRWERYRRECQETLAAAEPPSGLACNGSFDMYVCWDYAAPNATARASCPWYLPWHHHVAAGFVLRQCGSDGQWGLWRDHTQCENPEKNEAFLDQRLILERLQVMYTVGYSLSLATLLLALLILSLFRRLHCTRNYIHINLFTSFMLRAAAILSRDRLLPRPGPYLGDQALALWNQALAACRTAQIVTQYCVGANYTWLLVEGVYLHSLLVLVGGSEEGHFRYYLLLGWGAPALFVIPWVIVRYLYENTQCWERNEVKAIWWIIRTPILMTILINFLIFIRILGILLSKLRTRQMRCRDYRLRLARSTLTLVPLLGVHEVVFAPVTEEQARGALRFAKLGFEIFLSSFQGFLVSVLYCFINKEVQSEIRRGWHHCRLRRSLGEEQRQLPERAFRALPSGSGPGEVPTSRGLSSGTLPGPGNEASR

GIPR M67R (human) = biological target: T4, GIPR M67R (human) (UniProt P48546)
T4 sequence: T1 sequence with M46R, R283L

GIPR W90Lfs* (human) = biological target: T5, GIPR W90Lfs* (human) (UniProt P48546)
T5 sequence (P48546 whole entry, looked up): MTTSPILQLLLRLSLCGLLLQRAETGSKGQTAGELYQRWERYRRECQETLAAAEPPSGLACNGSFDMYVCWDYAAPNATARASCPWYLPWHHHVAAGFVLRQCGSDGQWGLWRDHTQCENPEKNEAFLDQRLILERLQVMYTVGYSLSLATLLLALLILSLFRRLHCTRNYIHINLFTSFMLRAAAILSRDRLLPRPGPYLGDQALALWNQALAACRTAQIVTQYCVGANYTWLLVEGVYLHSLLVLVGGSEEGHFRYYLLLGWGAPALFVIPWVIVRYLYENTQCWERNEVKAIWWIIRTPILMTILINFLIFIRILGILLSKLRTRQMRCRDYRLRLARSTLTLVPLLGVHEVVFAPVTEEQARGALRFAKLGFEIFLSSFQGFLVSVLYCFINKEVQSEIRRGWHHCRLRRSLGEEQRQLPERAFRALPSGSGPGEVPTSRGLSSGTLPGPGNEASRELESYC

GIPR T168A (human) = biological target: T6, GIPR T168A (human) (UniProt P48546)
T6 sequence: T1 sequence with T147A, R283L

β-arrestin 2 (Rluc8-Arrestin-3-Sp1) (from UniProt P32121 1-409) (natural protein)
β-arrestin 2 recruitment (BRET) on stimulation with GIP(1-42): logEC50 (Arrestin) (log M (inferred)) (GIPR L304R (human)): -9.41 | β-arrestin 2 recruitment (BRET) on stimulation with GIP(1-42): logEC50 (Arrestin) (log M (inferred)) (GIPR I378M (human)): -9.13 | β-arrestin 2 recruitment (BRET) on stimulation with GIP(1-42): logEC50 (Arrestin) (log M (inferred)) (GIPR E461* (human)): -9.17 | β-arrestin 2 recruitment (BRET) on stimulation with GIP(1-42): logEC50 (Arrestin) (log M (inferred)) (GIPR M67R (human)): -8.16 | β-arrestin 2 recruitment (BRET) on stimulation with GIP(1-42): logEC50 (Arrestin) (log M (inferred)) (GIPR W90Lfs* (human)): -10.8 | β-arrestin 2 recruitment (BRET) on stimulation with GIP(1-42): logEC50 (Arrestin) (log M (inferred)) (GIPR T168A (human)): -9.27
